In series [1] the test system is Dami cells. Briefly: Cytotoxicity-inhibitory (cell death-inhibitory) activity assay using Dami cells. In kind it is cell-based. Conditions: for cell death-inhibitory activity (in words): selenoprotein P and fragments purified from plasma.
Description: Using Dami cells (described in Greenberg S. M. et al., Blood, vol. 72, p. 1968-1977 (1988)) for use in assay system for cytotoxicity-inhibitory activity, the cells were washed twice with assay medium (50% PBS/SA/0.03% HSA (manufactured by SIGMA) or SA/0.05% BSA free from fatty acid (WAKO)/4 μM long-chain polyvalent fatty acid (e.g. arachidonic acid, linoleic acid or linolenic acid)) and suspended in the same medium at 3×10^4 cells/ml. The cell suspension was added to a 96-well plate in each 200 μl for wells for sample addition or in each 100 μl for wells for serial dilution. […] After stirring, a serial dilution was made with the wells containing 100 μl cell suspension. The plate was incubated at 37° C. in CO2 incubator for 4 to 5 days followed by assessment of survival of the cells.
The test system of series [2] is Rolling Mouse Nagoya. Particulars: intraperitoneal administration; cited from earlier work.
Series [3] has as its system Dami cells.
Series [4] relates to Dami cells. Conditions: stated as known; cited from earlier work.
In series [5] the test system is Dami cells. Nature of the series: Toxicity of selenium-containing substances to cells in culture. Particulars: concentration where selenocystine / other selenium-containing substances show toxicity.
The nature of series [6]: Stability of selenoprotein P and its fragments to heat, denaturing agent, pH, protease in blood. Format: physicochemical. Particulars: compared to common enzymes.
Series [7] has as its system Rolling Mouse Nagoya. Nature of the series: Effect of selenoprotein P on ataxia (stumbling index) in Rolling Mouse Nagoya. In kind it is in vivo. The method, then:
In order to confirm the activity to ameliorate ataxia of selenoprotein P, Rolling Mouse Nagoya, the established model of ataxia, was used with a stumbling index. Animals were divided into the following groups each consisting of ten animals: a control group intraperitoneally administered with saline (0.25 mL/head/week); a group intraperitoneally administered with a low dose of selenoprotein P (0.05 mg/head/week; 0.25 mL/head/week); and a group intraperitoneally administered with a high dose of selenoprotein P (0.5 mg/head/week; 0.25 mL/head/week). The animals received intraperitoneal administration once a week for three weeks.
The animals were Rolling Mouse Nagoya (113 animals, five to eight months old, weighing 19.1 to 36.2 g) regardless of sex. Grouping of the animals was based on the weight measured on the day before initiation of the experiment and a stumbling index measured before initiation of the experiment. A quantity of voluntary motion was measured during thirty minutes immediately before administration (during 30-0 min. before administration), immediately after administration (during 0-30 min. after administration), one hour after administration (during 60-90 min. after administration), three hours after administration (during 180-210 min. after administration), and seven hours after administration (during 420-450 min. after administration) with a device for measuring voluntary motion. Stumbling of animals was counted with a video camera set upon the device for measuring voluntary motion during the same time period as that of measurement of voluntary motion. A stumbling index was calculated by the formula: [Count of stumbling (count/30 min.)]/[Voluntary motion (count/30 min.)]. The results are shown in FIGS. 1 to 3 wherein #: p<0.05, ##: p<0.01, being significant as compared to values before administration (paired t-test); *: p<0.05, being significant as compared to control during the same time period (Turkey test).

Read-outs that look alike come from different tables or passages of the source. Where a SMILES comes first, the peptide text is derived from it. Where no end group is shown, it is not given here. [ ]: non-standard residue; d: D form. Sec = N[C@@H](C[SeH])C(=O)O

These results are taken from US20070249534A1, “Novel medicament for treating neurodegenerative diseases” (priority 2001, published 2007).

Turning to “Lys Arg Cys Ile Asn Gln Leu Leu Cys Lys Leu Pro Thr Asp Ser Glu Leu Ala Pro Arg Ser Xaa Cys Cys H is Cys Arg H is Leu Ile Phe Glu Lys (KRCINQLLCKLPTDSELAPRS[Sec]CCHCRHLIFEK; cysteine pairing not given here; listed as Human plasma) [SEQ ID NO: 3, peptide purified under reduced condition from selenoprotein P fragment]”, the “cell death-inhibitory activity (in words)” value in the series on Dami cells [1] is on record as “had the cell death-inhibiting activity”.
As to `NC(=O)[C@@H]1CCCN1C(=O)[C@H](Cc1cnc[nH]1)NC(=O)[C@@H]1CCC(=O)N1` [TRH, thyrotropin-releasing hormone], in the series with Rolling Mouse Nagoya [2], the “duration of the efficacy” value was “about 1 hours”.
As to `CC[C@H](C)[C@H](NC(=O)[C@H](CC(C)C)NC(=O)[C@H](Cc1c[nH]cn1)NC(=O)[C@H](CCCNC(=N)N)NC(=O)[C@H](CO)NC(=O)[C@H](Cc1c[nH]cn1)NC(=O)[C@H](CO)NC(=O)[C@H](CO)NC(=O)[C@H](C[SeH])NC(=O)[C@H](CO)NC(=O)[C@@H](N)CCCNC(=N)N)C(=O)N[C@@H](Cc1ccccc1)C(=O)N[C@@H](CCC(=O)O)C(=O)N[C@@H](CCCCN)C(=O)O` [Peptide 6, Arg Ser Xaa Ser Ser His Ser Arg His Leu Ile Phe Glu Lys] (H-RS[Sec]SSHSRHLIFEK-OH), the “cytotoxicity-inhibitory activity (in words)” value in the series with Dami cells [1] (Dami cells, peptides of Preparation 2) is recorded as “most effectively at the lowest concentration”.
Take `N[C@@H](C[Se][Se]C[C@H](N)C(=O)O)C(=O)O` [selenocystine]: the “toxicity (in words)” value in the series on Dami cells [3] is listed as “exhibited toxicity”. For the same molecule, the “toxicity when added alone to cell culture” value in the series with Dami cells [4] is “fairly strong toxicity”.

B1: selenoprotein P (protein)
chain: ESQDQSSLCKQPPAWSIRDQDPMLNSNGSVTVVALLQASUYLCILQASKLEDLRVKLKKEGYSNISYIVVNHQGISSRLKYTHLKNKVSEHIPVYQQEENQTDVWTLLNGSKDDFLIYDRCGRLVYHLGLPFSFLTFPYVEEAIKIAYCEKKCGNCSLTTLKDEDFCKRVSLATVDKTVETPSPHYHHEHHHNHGHQHLGSSELSENQQPGAPNAPTHPAPPGLHHHHKHKGQHRQGHPENRDMPASEDLQDLQKKLCRKRCINQLLCKLPTDSELAPRSUCCHCRHLIFEKTGSAITUQCKENLPSLCSUQGLRAEENITESCQURLPPAAUQISQQLIPTEASASURUKNQAKKUEUPSN
modifications: non-natural residues
With B1, the “cell death-inhibitory activity (in words)” value in the series with Dami cells [1] was “much lower than that of the fragment thereof”. Moreover, the “toxicity (in words)” value with Dami cells [5] is given as “no strong toxicity”. The “stability to heat, a denaturing agent, a broad range of pH or protease in blood” value in series [6] is on record as “rather stable”. The “stumbling index compared with values before administration” value in the series on Rolling Mouse Nagoya [7] (high dose 0.5 mg/head/week i.p., 420-450 min Week 1, 60-90, 180-210, 420-450 min Week 2, 60-90 min Week 3) is recorded as “significant decrease”. The “stumbling index compared with control group, significance” value in the series with Rolling Mouse Nagoya [7] (high dose 0.5 mg/head/week i.p., during 60-90 min. after administration on Week 1) was “significant decrease”. The “stumbling index compared with control group” value in the series with Rolling Mouse Nagoya [7] (high dose 0.5 mg/head/week i.p., each time period on Week 1, Week 2 and Week 3) is on record as “remained lower than the control group”. In addition, in the series with Rolling Mouse Nagoya [7] (low dose 0.05 mg/head/week i.p.), the “stumbling index, low dose group” value was “no significant decrease”.

B2: SEQ ID NO: 2: selenoprotein P fragment, 260th to 362nd amino acids (103 C-terminal residues) (protein, listed as Human plasma)
chain: KRCINQLLCKLPTDSELAPRS[code U]CCHCRHLIFEKTGSAIT[code U]QCKENLPSLCS[code U]QGLRAEENITESCQ[code U]RLPPAA[code U]QISQQLIPTEASAS[code U]R[code U]KNQAKK[code U]E[code U]PSN
modifications: ends and bridges not checked
As to B2, in the series with Dami cells [1], the “cell death-inhibitory activity (in words)” value is recorded as “having the cell death-inhibiting activity”.
